Assay results from article PMC3836487.

Target: CFP
Test: FRET or BRET; acceptor photobleaching FRET in live C. crescentus cells on 1 % agarose pads; YFP (acceptor) bleached for 20 s at 532 nm, increase of CFP (donor) emission recorded; cells grown in M2G, 0.3 % xylose for 1 h; apparent FRET efficiency, above 0.5 % taken as an interaction, above 1 % as a strong one

YFP
apparent FRET efficiency: < 0.5%
